Non-standard residues stand in square brackets, D forms with d. Groups on a side chain read outwards from the residue. Primed or numbered codes have the meaning given here. No end group written: not given here. *: point of attachment. C18 diacid = O=C(O)CCCCCCCCCCCCCCCCC(=O)*; Palmitoyl = CCCCCCCCCCCCCCCC(=O)*; PEG2′ = not defined here; Aib = CC(C)(N)C(=O)O
Columns and labels:
human glucagon receptor = human glucagon receptor (human, UniProt P47871 26-477); test: cell-based or functional assay
[1] = target: human glucagon-like peptide-1 receptor (human, UniProt P43220 24-463); test: cell-based or functional assay
Sequence of human glucagon-like peptide-1 receptor (P43220 24-463): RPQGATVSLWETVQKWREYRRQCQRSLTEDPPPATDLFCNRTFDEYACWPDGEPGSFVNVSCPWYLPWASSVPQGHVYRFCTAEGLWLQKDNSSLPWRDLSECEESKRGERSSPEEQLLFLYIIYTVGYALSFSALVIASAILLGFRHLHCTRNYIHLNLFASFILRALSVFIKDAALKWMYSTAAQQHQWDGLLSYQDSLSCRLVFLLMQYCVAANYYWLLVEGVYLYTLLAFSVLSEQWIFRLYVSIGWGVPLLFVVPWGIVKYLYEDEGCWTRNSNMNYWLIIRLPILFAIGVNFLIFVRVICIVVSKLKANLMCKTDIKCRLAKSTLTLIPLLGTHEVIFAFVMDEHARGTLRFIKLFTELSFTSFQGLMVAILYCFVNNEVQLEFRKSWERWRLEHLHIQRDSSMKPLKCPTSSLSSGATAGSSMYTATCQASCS

H[dS]QGTFTSDYSKYLDEKAAK([PEG2′-PEG2′-Glu-C18 diacid])EFIEWLLRA-NH2 [Compound 2]
GCGR (EC50, nM), CRE-luciferase in HEK-293 cells (human glucagon receptor): 2.8 nM
GLP-1R (EC50, nM), CRE-luciferase in HEK-293 cells [1]: 0.39 nM

H[dS]QGTFTSDYSKYLDSK([PEG2′-PEG2′-Glu-C18 diacid])AAHDFVEWLLNGGPSSGAPPPS-NH2 [Compound 3]
GCGR (EC50, nM), CRE-luciferase in HEK-293 cells (human glucagon receptor): 1.02 nM
GLP-1R (EC50, nM), CRE-luciferase in HEK-293 cells [1]: 0.59 nM

H[Aib]QGTFTSDK([PEG2′-PEG2′-Glu-C18 diacid])SKYLDERRAQDFVQWLLDGGPSSGAPPPS-NH2 [Compound 20]
GCGR (EC50, nM), CRE-luciferase in HEK-293 cells (human glucagon receptor): 0.48 nM
GLP-1R (EC50, nM), CRE-luciferase in HEK-293 cells [1]: 0.09 nM

H[dS]QGTFTSDYSK([PEG2′-PEG2′-Glu-Palmitoyl])KLD[Aib]RRAQDFVQWLMNTGGPSSGAPPPS-NH2 [Compound 17]
GCGR (EC50, nM), CRE-luciferase in HEK-293 cells (human glucagon receptor): 0.58 nM
GLP-1R (EC50, nM), CRE-luciferase in HEK-293 cells [1]: 0.68 nM

H[dS]QGTFTSDYSKYLD[Aib]K([PEG2′-PEG2′-C18 diacid])RAQDFVQWLMNTGGPSSGAPPPS-NH2 [Compound 12]
GCGR (EC50, nM), CRE-luciferase in HEK-293 cells (human glucagon receptor): 0.15 nM
GLP-1R (EC50, nM), CRE-luciferase in HEK-293 cells [1]: 0.32 nM

H[dS]QGTFTSDYSKYLD[Aib]K([PEG2′-PEG2′-Glu-C18 diacid])RAQDFVQWLMNTGGPSSGAPPPS-NH2 [Compound 14]
GCGR (EC50, nM), CRE-luciferase in HEK-293 cells (human glucagon receptor): 0.19 nM
GLP-1R (EC50, nM), CRE-luciferase in HEK-293 cells [1]: 0.4 nM

HSQGTFTSDYSKYLDSRRAQDFVQWLMNTKRNKNNIA (ligand) [Oxyntomodulin]
GCGR (EC50, nM), CRE-luciferase in HEK-293 cells (human glucagon receptor): 6.2 nM

H[dS]QGTFTSDYSK([PEG2′-PEG2′-C18 diacid])KLD[Aib]RRAQDFVQWLMNTGGPSSGAPPPS-NH2 [Compound 16]
GCGR (EC50, nM), CRE-luciferase in HEK-293 cells (human glucagon receptor): 0.2 nM
GLP-1R (EC50, nM), CRE-luciferase in HEK-293 cells [1]: 0.6 nM

H[dS]QGTFTSDYSKYLDK([PEG2′-PEG2′-C18 diacid])RRAQDFVQWLMNTGGPSSGAPPPS-NH2 [Compound 9]
GCGR (EC50, nM), CRE-luciferase in HEK-293 cells (human glucagon receptor): 0.18 nM
GLP-1R (EC50, nM), CRE-luciferase in HEK-293 cells [1]: 0.52 nM

H[dS]QGTFTSDYSKYLDEKAAK([PEG2′-PEG2′-Palmitoyl])EFIEWLLNGGPSSGAPPPS-NH2 [Compound 23]
GCGR (EC50, nM), CRE-luciferase in HEK-293 cells (human glucagon receptor): 0.43 nM
GLP-1R (EC50, nM), CRE-luciferase in HEK-293 cells [1]: 0.13 nM

H[dS]QGTFTSDK([PEG2′-PEG2′-Glu-Palmitoyl])SKYLD[Aib]RRAQDFVQWLMNTGGPSSGAPPPS-NH2 [Compound 7]
GCGR (EC50, nM), CRE-luciferase in HEK-293 cells (human glucagon receptor): 0.34 nM

H[dS]QGTFTSDYSKYLDEKAAK([PEG2′-PEG2′-Glu-C18 diacid])EFIEWLLNGGPSSGAPPPS-NH2 [Compound 4]
GCGR (EC50, nM), CRE-luciferase in HEK-293 cells (human glucagon receptor): 0.39 nM
GLP-1R (EC50, nM), CRE-luciferase in HEK-293 cells [1]: 0.13 nM

H[dS]QGTFTSDYSKYLDSK([PEG2′-PEG2′-Glu-C18 diacid])AAHDFVEWLLRA-NH2 [Compound 1]
GCGR (EC50, nM), CRE-luciferase in HEK-293 cells (human glucagon receptor): 0.54 nM
GLP-1R (EC50, nM), CRE-luciferase in HEK-293 cells [1]: 0.23 nM

H[dS]QGTFTSDK([PEG2′-PEG2′-Palmitoyl])SKYLD[Aib]RRAQDFVQWLMNTGGPSSGAPPPS-NH2 [Compound 5]
GCGR (EC50, nM), CRE-luciferase in HEK-293 cells (human glucagon receptor): 0.43 nM
GLP-1R (EC50, nM), CRE-luciferase in HEK-293 cells [1]: 0.06 nM

H[dS]QGTFTSDYSK([PEG2′-PEG2′-Palmitoyl])KLD[Aib]RRAQDFVQWLMNTGGPSSGAPPPS-NH2 [Compound 15]
GCGR (EC50, nM), CRE-luciferase in HEK-293 cells (human glucagon receptor): 0.6 nM
GLP-1R (EC50, nM), CRE-luciferase in HEK-293 cells [1]: 1.5 nM

H[Aib]QGTFTSDK([PEG2′-PEG2′-Glu-C18 diacid])SKYLD[Aib]RRAQDFVQWLLDGGPSSGAPPPS-NH2 [Compound 22]
GCGR (EC50, nM), CRE-luciferase in HEK-293 cells (human glucagon receptor): 0.32 nM
GLP-1R (EC50, nM), CRE-luciferase in HEK-293 cells [1]: 0.06 nM

H[dS]QGTFTSDYSKYLDK([PEG2′-PEG2′-Glu-C18 diacid])RRAQDFVQWLMNTGGPSSGAPPPS-NH2 [Compound 11]
GCGR (EC50, nM), CRE-luciferase in HEK-293 cells (human glucagon receptor): 0.18 nM
GLP-1R (EC50, nM), CRE-luciferase in HEK-293 cells [1]: 0.15 nM

H[dS]QGTFTSDYSKYLD[Aib]K([PEG2′-PEG2′-Glu-Palmitoyl])RAQDFVQWLMNTGGPSSGAPPPS-NH2 [Compound 13]
GCGR (EC50, nM), CRE-luciferase in HEK-293 cells (human glucagon receptor): 0.16 nM
GLP-1R (EC50, nM), CRE-luciferase in HEK-293 cells [1]: 0.44 nM

H[dS]QGTFTSDYSK([PEG2′-PEG2′-Glu-C18 diacid])KLD[Aib]RRAQDFVQWLMNTGGPSSGAPPPS-NH2 [Compound 18]
GCGR (EC50, nM), CRE-luciferase in HEK-293 cells (human glucagon receptor): 0.18 nM
GLP-1R (EC50, nM), CRE-luciferase in HEK-293 cells [1]: 0.76 nM

H[dS]QGTFTSDYSKYLDK([PEG2′-PEG2′-Glu-Palmitoyl])RRAQDFVQWLMNTGGPSSGAPPPS-NH2 [Compound 10]
GCGR (EC50, nM), CRE-luciferase in HEK-293 cells (human glucagon receptor): 0.11 nM
GLP-1R (EC50, nM), CRE-luciferase in HEK-293 cells [1]: 0.35 nM

H[dS]QGTFTSDYSKYLDEKAAK([PEG2′-PEG2′-Glu-Palmitoyl])EFIEWLLNGGPSSGAPPPS-NH2 [Compound 24]
GCGR (EC50, nM), CRE-luciferase in HEK-293 cells (human glucagon receptor): 0.58 nM
GLP-1R (EC50, nM), CRE-luciferase in HEK-293 cells [1]: 0.16 nM

H[dS]QGTFTSDK([PEG2′-PEG2′-Glu-C18 diacid])SKYLD[Aib]RRAQDFVQWLMNTGGPSSGAPPPS-NH2 [Compound 8]
GCGR (EC50, nM), CRE-luciferase in HEK-293 cells (human glucagon receptor): 0.18 nM
GLP-1R (EC50, nM), CRE-luciferase in HEK-293 cells [1]: 0.2 nM

H[dS]QGTFTSDK([PEG2′-PEG2′-C18 diacid])SKYLD[Aib]RRAQDFVQWLMNTGGPSSGAPPPS-NH2 [Compound 6]
GCGR (EC50, nM), CRE-luciferase in HEK-293 cells (human glucagon receptor): 0.33 nM
GLP-1R (EC50, nM), CRE-luciferase in HEK-293 cells [1]: 0.1 nM

H[Aib]QGTFTSDK([PEG2′-PEG2′-Glu-Palmitoyl])SKYLD[Aib]RRAQDFVQWLLDGGPSSGAPPPS-NH2 [Compound 21]
GCGR (EC50, nM), CRE-luciferase in HEK-293 cells (human glucagon receptor): 0.66 nM
GLP-1R (EC50, nM), CRE-luciferase in HEK-293 cells [1]: 0.15 nM

H[Aib]QGTFTSDK([PEG2′-PEG2′-Glu-Palmitoyl])SKYLDERRAQDFVQWLLDGGPSSGAPPPS-NH2 [Compound 19]
GCGR (EC50, nM), CRE-luciferase in HEK-293 cells (human glucagon receptor): 0.56 nM
GLP-1R (EC50, nM), CRE-luciferase in HEK-293 cells [1]: 0.14 nM

From patent US20170183383A1 (JIANG XIANXING, published 2017)
